From patent US20090208489A1 (Takeda / Millennium, published 2009)

B1: human monoclonal antibody mAb sc209 (antibody, human IgG1, kappa, V domains shown)
VH: GVQLVESGGGLVQPGGSLRLSCAASGFTISRNDMHWVRQATGKGLEWVSAIGTGGDTYYPGSVKGRFTISRENAKNSLYLQMNSLRAGDTAVYYCARGHMTTFGGFIVIGNGMDVWGQGTTVTVSS
VL: not shown
notes: Human IgG1 kappa; also called Ov64sc209
B2: human monoclonal antibody mAb sc189 (antibody, human IgG1, kappa, V domains shown)
VH: EVQLVESGGGLVQPGGSLRLSCAASGFSFSSYDMHWVRQATGKGLEWVSGIDIAGDTYYPGSVKGRFTISRENAKNSLYLQMNSLRAGDTAVYYCARGDYDGTFDYWGQGTLVTVSS
VL: DIVMTQTPLSSPVTLGQPASISCRSSQSLVHSDGNTYLSWLQQRPGQPLRLLFYKISNRFSGVPDRFSGSGAGTDFTLIINRVEAEDVGVYYCMHATQFPITFGQGTRLEIKR
notes: Human IgG1 kappa; also called Ov64sc189
B3: human monoclonal antibody mAb sc77 (antibody, human IgG1, kappa, V domains shown)
VH: QVQLVESGGGVVQPGRSLRLSCAASGFTFSSYGMHWVRQAPGKGLEWVAVIWYDGNNKYYADSVKGRFTISRDNSKNTLYLQMNSLRAEDTAVYYCARTSGIAAFDYWGQGTLVTVSS
VL: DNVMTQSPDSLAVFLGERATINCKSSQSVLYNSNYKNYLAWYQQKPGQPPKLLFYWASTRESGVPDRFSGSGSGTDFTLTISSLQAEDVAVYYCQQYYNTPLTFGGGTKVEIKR
notes: Human IgG1 kappa; also called sc077; Ov64sc77

Key:
[1] = target: T1, OV064(32-282) expressed on transfected ES-2 ovarian carcinoma cells (human, UniProt Q7Z7D3 32-282); assay: cell-based or functional assay
T1 sequence: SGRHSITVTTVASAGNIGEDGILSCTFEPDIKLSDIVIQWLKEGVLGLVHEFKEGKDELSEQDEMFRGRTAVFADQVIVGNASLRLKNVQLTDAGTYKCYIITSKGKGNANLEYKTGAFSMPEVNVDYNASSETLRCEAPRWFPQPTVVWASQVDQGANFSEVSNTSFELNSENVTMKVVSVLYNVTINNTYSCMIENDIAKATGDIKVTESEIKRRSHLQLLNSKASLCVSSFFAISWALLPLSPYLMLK

[2] = target: T1, OV064(32-282) expressed on transfected …; assay: flow cytometry on OV064 expressing cells
Procedure: Analysis of mAb by flow cytometry. 50,000-100,000 test cells were prepared in 100 ul phosphate buffered saline+1% fetal bovine serum (PBSS). 50 ul of test reagent (either hybridoma supernatants, mouse serum or purified mAb) was added, and incubated 30-45 min on ice, then washed 2-3 times in PBSS. 50 ul of fluorescently labeled secondary antibody (Anti-Mouse IgG or Anti-Human IgG) was then added, and incubated 30-45 minutes on ice and washed. The cells were then resuspended in 300 ul of PBSS and analyzed by flow cytometer (FACSCalibur, Becton Dickinson) to assess amount of cell surface bound antibody.
Each human mAb (mAb sc77, mAb sc189, and mAb sc209) bound purified recombinant OV064-His fusion protein in ELISA analysis.

[3] = target: T2, OV064 peptide 157-176 (human); assay: peptide array (20-mer on nitrocellulose)
T2 construct: 20-mer synthetic peptide on nitrocellulose; also called OV064 AA 157-176
T2 peptide: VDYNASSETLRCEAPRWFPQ
Procedure: (§1) Epitope mapping. A variety of techniques are available to determine epitopes specific for any particular antibody. For example, constructs of OV064 truncations were generated in a pCMV3 vector. Constructs representing amino acids 32-282, 133-282, 167-282 and 183-282 of the OV064 protein sequence were generated as N-terminally FLAG tagged proteins that when transfected into 293 cells, will be expressed on the cell surface. OV064 specific antibodies sc077, sc189, sc209 an 8G5 were tested for binding to these expressed constructs by flow cytometry, as described above. Furthermore, epitopes were analyzed using the Novatope system (Novagen Inc). Briefly, OV064 cDNA was treated with DNAse and fragments representing 15-600 bp were cloned into a bacterial expression vector. Each mAb was tested against 2000 clones representing OV064 fragments and each positive clone was picked and sequenced. The minimal common sequence between each of these clones was designated as the epitope to which each antibody bound. Additionally, a synthetic peptide map was utilized for identifying anti-OV064 epitopes. Briefly, 20 amino acid peptides each overlapping with 15 amino acids were printed on a nitrocellulose filter and incubated with anti-OV064 specific antibodies. Peptide spots that reacted strongly with the OV064 specific antibodies indicated the presence of an OV064 epitope.
(§2) As described above in the methods, various approaches to determine epitope mapping of OV064 specific mAbs were used. […] The other methods confirmed the results depicted in Table 5.

[4] = target: T3, OV064 peptide 162-181 (human); assay: peptide array (20-mer on nitrocellulose)
T3 construct: 20-mer synthetic peptide on nitrocellulose; also called OV064 AA 162-181
T3 peptide: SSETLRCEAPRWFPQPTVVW
Procedure: as §1, §2

[5] = target: T4, OV064 peptide 167-186 (human); assay: peptide array (20-mer on nitrocellulose)
T4 construct: 20-mer synthetic peptide on nitrocellulose; also called OV064 AA 167-186
T4 peptide: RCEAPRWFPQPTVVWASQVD
Procedure: as §1, §2

[6] = target: T5, OV064 peptide 172-191 (human); assay: peptide array (20-mer on nitrocellulose)
T5 construct: 20-mer synthetic peptide on nitrocellulose; also called OV064 AA 172-191
T5 peptide: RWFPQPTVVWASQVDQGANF
Procedure: as §1, §2

[7] = target: T6, OV064 peptide 177-196 (human); assay: peptide array (20-mer on nitrocellulose)
T6 construct: 20-mer synthetic peptide on nitrocellulose; also called OV064 AA 177-196
T6 peptide: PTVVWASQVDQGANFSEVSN
Procedure: as §1, §2

[8] = target: T7, OV064 peptide 237-256 (human); assay: peptide array (20-mer on nitrocellulose)
T7 construct: 20-mer synthetic peptide on nitrocellulose; also called OV064 AA 237-256
T7 peptide: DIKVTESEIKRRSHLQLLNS
Procedure: as §1, §2

[9] = target: T8, OV064 peptide 238-257 (human); assay: peptide array (20-mer on nitrocellulose)
T8 construct: 20-mer synthetic peptide on nitrocellulose; also called OV064 AA 238-257
T8 peptide: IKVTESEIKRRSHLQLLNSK
Procedure: as §1, §2

Binder | ICA (EC50) [1] [nM] | FCM (MFI max) [2] [MFI] | binding result [3] | binding result [4] | binding result [5] | binding result [6] | binding result [7] | binding result [8] | binding result [9]
B1 | 0.053 | 700 | binds | binds | binds | binds | binds |  | 
B2 | 0.06 | 820 |  |  |  |  |  | binds | binds
B3 | 0.123 | 780 | binds | binds | binds | binds |  |  | 
